Source: US20170342140A1

Tests used:
[1] = biological target: non-fucosylated glycopeptide B (SEQ ID NO: 22), BSA-PEG4 conjugate; test: antigen solid-phase ELISA, WGA lectin as positive control
[2] = biological target: glycopeptide B (SEQ ID NO: 21), BSA-PEG4 conjugate; test: antigen solid-phase ELISA, AAL lectin as positive control

| Substance | OD450 [1] | OD450 [2] |
| --- | --- | --- |
| WGA lectin | 3 OD450 |  |
| AAL lectin (from UniProt P18891 2-313) |  | 0.335 OD450 |
